# Measured values reported in the Human Domainome abundance scans (Beltran et al. 2025).
# ± gives the uncertainty stated by the source.
# B1: Transcription factor SOX-4, residues 60 to 127; numbered along this chain, Q06945 (parent)
# chain: KRPMNAFMVWSQIERRKIMEQSPDMHNAEISKRLGKRWKLLKDSDKIPFIREAERLRLKHMADYPDYK
# Variants of: B1
# Assay: abundance fitness (aPCA) (normalised: wild type 0, dead -1); higher = more abundant; growth selection in yeast, the domain comes from the species named
# Details: Homo sapiens
row,Variant,abundance fitness
1,D43A,-0.061 ± 0.055
2,D43P,-0.137 ± 0.067
3,D43C,-0.37 ± 0.058
4,D43N,-0.294 ± 0.053
5,D43M,-0.062 ± 0.056
6,D43E,-0.058 ± 0.057
7,D43F,-0.087 ± 0.041
8,D43I,-0.226 ± 0.058
9,D43S,-0.237 ± 0.037
10,D43W,-0.106 ± 0.043
11,D43K,-0.273 ± 0.06
12,D43V,-0.262 ± 0.039
13,D43G,-0.27 ± 0.046
14,D43Q,-0.337 ± 0.069
15,D43L,-0.151 ± 0.044
16,I50N,-0.284 ± 0.19
17,I50E,0.009 ± 0.081
18,I50K,-0.362 ± 0.14
19,I50T,-0.337 ± 0.086
20,I50F,0.003 ± 0.12
21,I50Y,0.041 ± 0.28
22,I50G,-0.309 ± 0.07
23,I50A,-0.186 ± 0.1
24,I50R,-0.2 ± 0.1

row,Variant,abundance fitness
1,I50L,-0.194 ± 0.082
2,I50W,-0.633 ± 0.15
3,I50C,-0.51 ± 0.2
4,I50Q,-0.021 ± 0.1
5,I50S,-0.322 ± 0.086
6,P48S,-0.453 ± 0.057
7,P48G,-0.51 ± 0.042
8,P48M,-0.168 ± 0.069
9,P48D,-0.469 ± 0.077
10,P48W,-0.493 ± 0.069
11,P48V,-0.315 ± 0.044
12,P48H,-0.31 ± 0.048
13,P48T,-0.346 ± 0.071
14,P48R,-0.4 ± 0.055
15,P48K,-0.482 ± 0.1
16,P48Q,-0.286 ± 0.2
17,P48C,-0.504 ± 0.084
18,P48I,-0.089 ± 0.08
19,P48Y,-0.566 ± 0.1
20,P48F,-0.351 ± 0.076
21,P48E,-0.189 ± 0.049
22,K36F,-0.053 ± 0.13
23,K36I,0.143 ± 0.36
24,K36C,-0.482 ± 0.28

row,Variant,abundance fitness
1,K36G,-0.416 ± 0.08
2,K36V,0.057 ± 0.063
3,K36P,-0.722 ± 0.18
4,K36R,-0.075 ± 0.061
5,K36A,-0.019 ± 0.071
6,K36D,-0.362 ± 0.25
7,K36N,0.04 ± 0.24
8,K36H,-0.141 ± 0.15
9,K36L,-0.105 ± 0.057
10,K36E,0.325 ± 0.071
11,K36S,-0.098 ± 0.11
12,L56G,-0.341 ± 0.071
13,L56Q,-0.108 ± 0.08
14,L56K,-0.174 ± 0.15
15,L56E,-0.201 ± 0.1
16,L56Y,-0.349 ± 0.22
17,L56P,-0.655 ± 0.1
18,L56T,-0.272 ± 0.09
19,L56I,-0.149 ± 0.093
20,L56F,-0.543 ± 0.11
21,L56D,-0.385 ± 0.13
22,L56V,-0.286 ± 0.063
23,L56R,-0.254 ± 0.054
24,L56S,-0.282 ± 0.049

row,Variant,abundance fitness
1,L56W,-0.542 ± 0.088
2,L56C,-0.408 ± 0.1
3,L56A,-0.355 ± 0.073
4,L56M,0.115 ± 0.14
5,R37N,0.101 ± 0.29
6,R37E,0.043 ± 0.07
7,R37H,-0.313 ± 0.25
8,R37Q,-0.093 ± 0.21
9,R37P,-0.811 ± 0.16
10,R37L,-0.364 ± 0.097
11,R37M,-0.067 ± 0.13
12,R37I,-0.371 ± 0.21
13,R37D,-0.035 ± 0.091
14,R37K,0.052 ± 0.078
15,R37V,-0.2 ± 0.06
16,R37C,-0.366 ± 0.2
17,R37A,0.133 ± 0.053
18,R37F,-0.714 ± 0.21
19,R37T,-0.05 ± 0.089
20,F49K,-0.879 ± 0.17
21,F49H,-0.131 ± 0.31
22,F49L,-0.598 ± 0.065
23,F49G,-0.702 ± 0.092
24,F49T,-0.623 ± 0.13

row,Variant,abundance fitness
1,F49R,-1.04 ± 0.11
2,F49M,-1.08 ± 0.31
3,F49P,-1.08 ± 0.23
4,F49S,-0.763 ± 0.098
5,F49Q,-0.972 ± 0.15
6,F49I,-0.82 ± 0.26
7,F49Y,-0.044 ± 0.11
8,F49A,-0.533 ± 0.084
9,F49V,-0.763 ± 0.094
10,K42M,-0.465 ± 0.1
11,K42V,-0.372 ± 0.074
12,K42Q,-0.104 ± 0.063
13,K42W,-0.786 ± 0.13
14,K42D,-0.274 ± 0.16
15,K42I,-0.609 ± 0.17
16,K42C,-0.28 ± 0.2
17,K42A,-0.066 ± 0.079
18,K42S,0.13 ± 0.053
19,K42H,-0.487 ± 0.28
20,K42L,-0.368 ± 0.055
21,K42N,-0.212 ± 0.17
22,K42G,-0.264 ± 0.075
23,K39F,-0.481 ± 0.062
24,K39S,-0.027 ± 0.036

row,Variant,abundance fitness
1,K39L,-0.244 ± 0.048
2,K39R,-0.187 ± 0.047
3,K39N,-0.19 ± 0.045
4,K39I,-0.384 ± 0.037
5,K39A,0.093 ± 0.063
6,K39H,-0.506 ± 0.11
7,K39T,-0.216 ± 0.064
8,K39G,-0.098 ± 0.04
9,K39W,-0.758 ± 0.091
10,K39P,-0.783 ± 0.2
11,K39E,0.057 ± 0.08
12,K39Y,-0.263 ± 0.076
13,K39C,-0.329 ± 0.044
14,K39V,-0.306 ± 0.039
15,K39M,-0.144 ± 0.036
16,I47W,-0.251 ± 0.045
17,I47V,-0.086 ± 0.037
18,I47Q,-0.006 ± 0.074
19,I47A,0.031 ± 0.063
20,I47N,-0.322 ± 0.05
21,I47K,-0.112 ± 0.074
22,I47F,-0.241 ± 0.051
23,I47D,-0.128 ± 0.054
24,I47L,0.078 ± 0.038

row,Variant,abundance fitness
1,I47C,-0.546 ± 0.062
2,I47T,-0.178 ± 0.046
3,I47M,-0.047 ± 0.05
4,I47G,-0.231 ± 0.039
5,I47Y,-0.224 ± 0.054
6,I47E,0.095 ± 0.059
7,I47P,-0.796 ± 0.4
8,I47H,-0.314 ± 0.051
9,I47S,-0.319 ± 0.041
10,E52F,-0.215 ± 0.11
11,E52V,-0.556 ± 0.065
12,E52M,-0.394 ± 0.071
13,E52T,-0.477 ± 0.11
14,E52S,-0.712 ± 0.11
15,E52H,-0.726 ± 0.3
16,E52Y,-0.634 ± 0.23
17,E52Q,-0.291 ± 0.088
18,E52W,-0.58 ± 0.14
19,E52P,-1.14 ± 0.29
20,E52D,-0.223 ± 0.13
21,E52G,-0.375 ± 0.13
22,E52N,-0.893 ± 0.19
23,E52K,-0.515 ± 0.12
